Source: patent US20090175789A1 (LFB BIOTECHNOLOGIES, published 2009)

Experiments:
[1] = target: T1, mouse LDL receptor (C2C12 cells) (mouse, UniProt P35951 22-862); experiment: flow cytometry on C2C12 cells, antibody at 30 µg/mL
T1 construct: whole, on cells; also called murine LDL-R
Experimental: (§1) The cross-reactivity of the anti-LDL-R antibodies was tested in the mouse (C2C12 cells), in the rat (YB2/0 cells), and in the hamster (CHO-K1 cells). The anti-LDL-R 12G4 antibodies were incubated at a final concentration of 30 μg/mL for 3 hours at 4° C. on C2C12, CHO-K1, and YB2/0 cells that had been cultured beforehand under LPDS conditions for 24 hours. The commercial 1C6 (anti-SREBP2, IgG) and C7 (anti-LDL-R, IgG2b) antibodies were used as negative and positive control antibodies, respectively. The detection of the bond was performed using an anti-IgG-PE antibody. The results were expressed as the percentage of fluorescent cells (FIG. 6A) and as mean fluorescence (FIG. 6B).

[2] = target: T2, rat LDL receptor (YB2/0 cells) (rat, UniProt P35952 22-879); experiment: flow cytometry on YB2/0 cells, antibody at 30 µg/mL
T2 construct: whole, on cells
Experimental: as §1

[3] = target: T3, hamster LDL receptor (CHO-K1 cells) (hamster, UniProt P35950 22-862); experiment: flow cytometry on CHO-K1 cells, antibody at 30 µg/mL
T3 construct: whole, on cells
Experimental: as §1

T3 sequence (P35950 22-862): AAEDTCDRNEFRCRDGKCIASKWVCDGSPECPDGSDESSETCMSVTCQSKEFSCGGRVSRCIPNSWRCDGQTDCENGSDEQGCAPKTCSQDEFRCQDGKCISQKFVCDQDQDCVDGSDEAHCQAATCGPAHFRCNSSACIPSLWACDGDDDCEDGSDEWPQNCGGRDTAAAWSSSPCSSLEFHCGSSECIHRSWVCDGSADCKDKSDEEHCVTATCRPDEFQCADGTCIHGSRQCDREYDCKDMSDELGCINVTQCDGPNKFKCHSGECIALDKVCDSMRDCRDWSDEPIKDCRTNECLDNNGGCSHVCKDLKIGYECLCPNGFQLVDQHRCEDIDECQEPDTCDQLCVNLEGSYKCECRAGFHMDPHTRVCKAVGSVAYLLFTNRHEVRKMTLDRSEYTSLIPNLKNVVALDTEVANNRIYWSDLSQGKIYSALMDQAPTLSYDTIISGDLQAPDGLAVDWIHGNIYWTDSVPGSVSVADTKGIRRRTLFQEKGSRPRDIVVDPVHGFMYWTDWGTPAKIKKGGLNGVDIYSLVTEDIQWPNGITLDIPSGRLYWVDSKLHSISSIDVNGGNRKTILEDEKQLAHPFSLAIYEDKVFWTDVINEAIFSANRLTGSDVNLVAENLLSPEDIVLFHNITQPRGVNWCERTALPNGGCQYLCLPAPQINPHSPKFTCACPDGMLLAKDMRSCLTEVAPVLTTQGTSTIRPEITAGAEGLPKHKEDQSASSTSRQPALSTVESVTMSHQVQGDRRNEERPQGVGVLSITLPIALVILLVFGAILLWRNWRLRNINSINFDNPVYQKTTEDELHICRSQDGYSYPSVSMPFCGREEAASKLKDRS
T1 sequence (P35951 22-862): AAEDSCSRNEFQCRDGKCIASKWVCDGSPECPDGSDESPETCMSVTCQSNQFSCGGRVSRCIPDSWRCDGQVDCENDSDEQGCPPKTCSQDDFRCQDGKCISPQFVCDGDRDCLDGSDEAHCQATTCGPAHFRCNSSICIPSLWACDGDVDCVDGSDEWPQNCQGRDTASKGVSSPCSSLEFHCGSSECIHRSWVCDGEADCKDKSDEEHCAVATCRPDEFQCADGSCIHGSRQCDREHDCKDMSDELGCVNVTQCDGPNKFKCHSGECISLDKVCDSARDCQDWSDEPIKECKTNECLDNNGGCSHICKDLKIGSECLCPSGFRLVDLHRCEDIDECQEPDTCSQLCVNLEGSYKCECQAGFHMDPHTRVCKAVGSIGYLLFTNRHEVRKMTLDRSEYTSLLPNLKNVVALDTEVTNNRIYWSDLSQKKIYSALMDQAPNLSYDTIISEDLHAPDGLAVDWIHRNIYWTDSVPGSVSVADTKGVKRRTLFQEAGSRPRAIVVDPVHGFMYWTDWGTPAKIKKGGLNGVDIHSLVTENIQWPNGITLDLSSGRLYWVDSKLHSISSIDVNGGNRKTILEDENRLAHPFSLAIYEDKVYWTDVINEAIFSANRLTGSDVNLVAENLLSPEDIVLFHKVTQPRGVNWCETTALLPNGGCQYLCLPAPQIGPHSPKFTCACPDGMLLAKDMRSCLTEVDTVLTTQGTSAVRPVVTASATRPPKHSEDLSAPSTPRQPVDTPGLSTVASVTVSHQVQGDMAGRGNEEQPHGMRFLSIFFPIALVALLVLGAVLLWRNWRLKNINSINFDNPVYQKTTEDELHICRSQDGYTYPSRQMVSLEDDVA
T2 sequence (P35952 22-879): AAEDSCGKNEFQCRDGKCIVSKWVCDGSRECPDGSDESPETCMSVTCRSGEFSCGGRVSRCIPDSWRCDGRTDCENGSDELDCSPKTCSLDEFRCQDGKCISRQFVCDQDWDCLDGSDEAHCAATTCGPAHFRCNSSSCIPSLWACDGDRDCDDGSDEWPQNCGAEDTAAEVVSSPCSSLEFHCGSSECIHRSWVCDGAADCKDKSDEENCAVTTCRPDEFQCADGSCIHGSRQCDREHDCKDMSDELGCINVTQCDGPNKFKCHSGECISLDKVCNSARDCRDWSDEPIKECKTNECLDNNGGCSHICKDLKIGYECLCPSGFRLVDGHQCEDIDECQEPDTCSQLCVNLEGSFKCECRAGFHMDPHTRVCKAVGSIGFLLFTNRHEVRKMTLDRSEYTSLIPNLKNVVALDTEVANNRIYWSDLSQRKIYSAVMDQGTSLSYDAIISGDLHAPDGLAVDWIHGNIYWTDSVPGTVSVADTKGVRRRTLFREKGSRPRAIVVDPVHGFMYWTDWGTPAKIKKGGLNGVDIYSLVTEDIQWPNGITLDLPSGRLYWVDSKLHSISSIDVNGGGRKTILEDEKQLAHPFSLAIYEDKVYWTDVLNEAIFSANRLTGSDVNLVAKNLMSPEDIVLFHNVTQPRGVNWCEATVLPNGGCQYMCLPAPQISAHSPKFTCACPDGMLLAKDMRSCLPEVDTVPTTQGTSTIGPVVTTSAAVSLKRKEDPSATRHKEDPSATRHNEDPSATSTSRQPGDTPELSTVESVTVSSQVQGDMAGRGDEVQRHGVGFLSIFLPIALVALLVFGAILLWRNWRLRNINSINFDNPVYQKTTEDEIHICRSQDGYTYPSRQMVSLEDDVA

binding result [1]: binds
binding result [2]: binds
binding result [3]: binds
B1: anti-LDL-R 12G4 antibody (antibody, mouse IgG1, V domains shown)
VH: QIQLVQSGPELKKPGETVKISCKASGYTFTKYGMNWVKQAPGKGLKWMGWINTNTGEPTYAEEFKGRFAFSLETSASTAFLQINNLKNEDTATYFCSRGGYYDSYWGQGTLVTVSA
VL: DIVMSQSPSSLAVSVGEKVTMSCKSSQSLLYSSSQKNYLAWYQQKPGQSPKVLIYWASTRESGVPDRFTGSGSGTDFTLTISSVKAEDLAVYYCQQYYTYRTFGGGTKLEIK
notes: Murine IgG1 kappa purified from ascites of hybridoma H12G4; also called anti-LDL-R 12G4 antibodies; monoclonal antibody produced by the H12G4 hybridoma (CNCM I-3487)
